# Measured values as given in US11453711B2, “Fusion proteins of GLP-1 and GDF15 and conjugates thereof” (BEIJING QL BIOPHARMACEUTICAL CO., LTD., priority 2019, dated 2022).
# B1: MLC093: fusion polypeptide SEQ ID NO: 381 conjugated with Moiety B at 33C of Linker (conjugate)
# chain: HGEGTFTSDVSSYLEEQAAKEFIAWLVRGGGGAQPGAQPGAQPGAQPGAQPGAQPGAQPGAQPCQEPGAQPGQEPGAQPGQEPGAQPGQEPGAQPGQEPGAQPGQEPGAQPARQGDHCPLGPGRCCRLHTVRASLEDLGWADWVLSPREVQVTMCIGACPSQFRAANLHAQIKTSLHRLKPDTVPAPCCVPASYNPMVLIQKTDTGVSLQTYDDLLAKDCHCI
# modifications: Moiety B conjugated at linker Cys33
# What was measured:
# [1] = Body weight and food intake in C57BL/6 mice, fusion protein conjugates, 30 nmol/kg daily 10 days; assay type: in vivo
# How it was run: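 Male C57BL/6 mice received fusion protein conjugates by daily subcutaneous injection, with dosing running from Day 1 to Day 10. Body weight was recorded daily per animal and food intake daily per group. Body weight reduction was expressed relative to vehicle percent loss from Day 1. Cumulative food intake reduction was expressed as percent decrease versus vehicle.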
# [2] = Efficacy in DIO mice, daily sc 28 days; assay type: in vivo, DIO male C57BL/6 mice
# Description: FIGS. 6A-6E show In vivo efficacy in DIO mice. To evaluate the body weight, food intake and glucose effects of the fusion proteins, 17 week old DIO mice (C57BL/6 mice on high fat diet for 13 weeks) were dosed everyday subcutaneously with different concentrations of proteins for 28 days. […] FIGS. 6D and 6E show body weight change with dose titrations of MLC089 and MLC093 at 3, 10 and 30 nmol/kg. Data are expressed as mean values and standard error (SEM) for FIGS. 6A, 6C, 6D and 6E. n=5 for each treatment group. For FIG. 6B, a pooled food intake was measured for each treatment group.
# 17 week old DIO male C57BL/6 mice (˜45 g) were injected everyday subcutaneously with designated proteins (i.e., MLC089, MLC093) for 28 days. Food intake and body weight were measured daily and five animals were used for each treatment group. Fasting glucose was also monitored on designated days. Body weight and glucose were monitored for each individual animal, but food intake for each group animals was measured together. Day 1 and Day 28 are first day and last day of molecule dosage. % BW loss=100*(BW on Day n-BW on Day 1)/(BW on Day 1). Cumulative food intake on Day n represents sum of food intake from Day 1 to Day n. Terminal blood was collected and EDTA-2K plasma was prepared and frozen at −80 C for biomarker measurement. Liver was also collected and frozen in liquid nitrogen and store at −80 C. Data are indicated as mean values and standard error (SEM) or pooled values.
# [3] = Efficacy in spontaneously obese cynomolgus monkeys, sc every three days for 49 days; assay type: in vivo; conditions: obese monkeys, 1, 3 and 10 nmol/kg sc every three days
# Description: FIGS. 10A-10B show In vivo efficacy in obese monkey. Naïve male spontaneously obese cynomolgus monkeys were injected every three days subcutaneously with designated protein MLC093 with different concentrations for 49 days.
# Naïve male spontaneously obese cynomolgus monkeys with BMI>40 kg/m^2 were injected every three days subcutaneously with designated protein MLC093 for 49 days. Body weight was measured once a week and food intake was measured daily for each monkey. Six animals were used for vehicle or MLC093 1 nmol/kg treamment group and seven animals were used for MLC093 3 nmol/kg or MLC093 10 nmol/kg treamment group. Day 1 and Day 49 are first day and last day of molecule dosage. % BW loss=100*(BW on Day n-BW on Day 1)/(BW on Day 1). Cumulative food intake on Day n represents sum of food intake from Day 1 to Day n. Data are indicated as mean values and standard error (SEM) or pooled values.
molecule,measurement,setting,value
B1,Body weight reduction at 30 nmol/kg (% reduction compared to vehicle)(Day11),[1],26.2%
same,Cumulative food intake reduction at 30 nmol/kg (% reduction compared to vehicle)(Day11),[1],43.8%
same,body weight reduction efficacy,"[2]; DIO mice, 30 nmol/kg daily 28 days, FIG. 6A",much better body weight reduction efficacy than Semaglutide and GDF15 derivative (MLC014)
same,dose dependence of body weight reduction,"[2]; DIO mice, 3, 10 and 30 nmol/kg, FIGS. 6D and 6E",dose dependent efficacy on body weight reduction
same,fasting glucose,"[2]; DIO mice, FIG. 6C",reached similar level to Semaglutide
same,efficacy,"[2]; DIO study, FIG. 6",better efficacy than Semaglutide and GDF15 derivative (MLC014)
same,body weight loss,[3],good efficacy on body weight loss and food intake suppression
same,food intake suppression,[3],good efficacy on body weight loss and food intake suppression
